In patent US20040214993A1 one finds % SPECIFIC BINDING (of 125I TNF to WEHI-164 cells) data, which are given here for one substance.

Test [1] deals with TNF receptors on WEHI-164 cells (mouse). The experiment in a line: radioreceptor assay, cold TNF 0 ng/tube.
For test [2] the target is unchanged. The experiment in a line: radioreceptor assay, cold TNF 1 ng/tube.
Test [3] has the same target. The test is described as follows: radioreceptor assay, cold TNF 10 ng/tube.
For test [4] the target is unchanged. The test is described as follows: radioreceptor assay, cold TNF 100 ng/tube.
The target is the same in test [5]. The experiment in a line: radioreceptor assay, cold TNF 500 ng/tube.
For test [6] the target is unchanged. The test is described as follows: radioreceptor assay, cold TNF 1,000 ng/tube.
The target is the same in test [7]. The test is described as follows: radioreceptor assay, cold TNF 5,000 ng/tube.
Test [8] has the same target. The experiment in a line: radioreceptor assay, cold TNF 10,000 ng/tube.

Chain of TNF receptors on WEHI-164 cells (mouse) (P25118 30-454): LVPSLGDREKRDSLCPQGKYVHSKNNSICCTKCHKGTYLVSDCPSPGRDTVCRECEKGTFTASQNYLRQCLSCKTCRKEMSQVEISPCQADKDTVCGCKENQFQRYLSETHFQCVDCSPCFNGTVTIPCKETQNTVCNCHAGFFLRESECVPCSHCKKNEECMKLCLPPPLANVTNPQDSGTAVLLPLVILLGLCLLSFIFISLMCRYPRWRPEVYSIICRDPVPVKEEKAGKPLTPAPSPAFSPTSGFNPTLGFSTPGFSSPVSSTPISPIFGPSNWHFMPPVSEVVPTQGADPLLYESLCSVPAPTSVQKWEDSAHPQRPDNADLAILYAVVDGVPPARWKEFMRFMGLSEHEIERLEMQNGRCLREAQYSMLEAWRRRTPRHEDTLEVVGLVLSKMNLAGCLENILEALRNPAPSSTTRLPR

Take “human recombinant TNF alpha (from UniProt P01375 1-233) (ligand)”: the % SPECIFIC BINDING (of 125I TNF to WEHI-164 cells) in test [1] worked out at 100%; in test [2], 108%; in test [3], 64%; in test [4], 11%; in test [5], 10%; in test [6], 0%. Also, the % SPECIFIC BINDING (of 125I TNF to WEHI-164 cells) in test [7] and in test [8] was 0% in each case.
